# According to patent US4793986A, “Macromolecular platinum antitumor compounds” (Johnson Matthey, Inc., priority 1987, dated 1988):
# Assays:
# [1] = Pt release; type: physicochemical; parameters: unit not given here
# [2] = test system: L1210 Leukemia; assay: Effect on L1210 Leukemia; type: in vivo, mice; conditions: i.p.; for AWG D.5: day 5
# [3] = cited from earlier work
# [4] = test system: L1210; assay: Lifespan summary, L1210; type: in vivo, mice; conditions: i.p.; for AWG D.5: day 5
# [5] = test system: B16-F10; assay: In-vitro cytotoxicity testing, B16-F10; type: cell-based; conditions: B16-F10 (murine melanoma)
# Description: (§1) IN-VITRO CY[…]^1
# (§2) IC50 (ug/ml)/Active Dilution
# B16F10 -- Murine melanoma
# [6] = test system: A549; assay: In-vitro cytotoxicity testing, A549; type: cell-based; conditions: A549 (human lung)
# Description: IN-VITRO CYTOTOXICITY TESTING^1
# as §2
# [7] = test system: HCT-116; assay: In-vitro cytotoxicity testing, HCT-116; type: cell-based; conditions: HCT-116 (human colon)
# Description: as §1, §2
# [8] = test system: SW1271; assay: In-vitro cytotoxicity testing, SW1271; type: cell-based; conditions: SW1271 (human lung)
# Description: as §1, §2
# [9] = pH 5.80, 1 h, 0.1M phosphate buffer
# [10] = pH 5.80, 24 h, 0.1M phosphate buffer
# [11] = pH 5.80, 48 h, 0.1M phosphate buffer
# [12] = pH 7.00, 1 h, 0.1M phosphate buffer
# [13] = pH 7.00, 24 h, 0.1M phosphate buffer
# [14] = pH 7.00, 48 h, 0.1M phosphate buffer
# [15] = pH 8.00, 1 h, 0.1M phosphate buffer
# [16] = pH 8.00, 24 h, 0.1M phosphate buffer
# [17] = pH 8.00, 48 h, 0.1M phosphate buffer
# [18] = 4 mg/kg/dose, Q01DX1;1, vehicle BS
# [19] = 6 mg/kg/dose, Q01DX1;1, vehicle BS
# [20] = 8 mg/kg/dose, Q01DX1;1, vehicle BS
# [21] = 10 mg/kg/dose, Q01DX1;1, vehicle BS
# [22] = 80 mg/kg/dose, Q01DX1;1, H2O + tween 80
# [23] = 120 mg/kg/dose, Q01DX1;1, H2O + tween 80
# [24] = 160 mg/kg/dose, Q01DX1;1, H2O + tween 80
# [25] = 240 mg/kg/dose, Q01DX1;1, H2O + tween 80
# [26] = 320 mg/kg/dose, Q01DX1;1, H2O + tween 80
# [27] = 400 mg/kg/dose, Q01DX1;1, H2O + tween 80
compound,measurement,setting,value
Pt-Isoserinato Dextran [Example 5],Pt release,[1]; [9],9.5
same,Pt release,[1]; [10],72.5
same,Pt release,[1]; [11],88.5
same,Pt release,"[1]; pH 5.80, 120 h, 0.1M phosphate buffer",98.7
same,Pt release,[1]; [12],8.8
same,Pt release,[1]; [13],61.1
same,Pt release,[1]; [14],76.3
same,Pt release,"[1]; pH 7.00, 120 h, 0.1M phosphate buffer",89.3
same,Pt release,[1]; [15],8.8
same,Pt release,[1]; [16],55.7
same,Pt release,[1]; [17],66.9
same,Pt release,"[1]; pH 8.00, 120 h, 0.1M phosphate buffer",76.2
"N.N.[Cl][Pt][Cl] [Cisplatin, cis-diamino dichloroplatinum(II)]",% T/C,[2]; [18],129%
same,Med. S.T.,[2]; [18],9.0
same,AWG D.5,[2]; [18],0.2 Gm
same,% T/C,[2]; [19],157%
same,Med. S.T.,[2]; [19],11.0
same,AWG D.5,[2]; [19],-0.9 Gm
same,% T/C,[2]; [20],136%
same,Med. S.T.,[2]; [20],9.5
same,AWG D.5,[2]; [20],-1.4 Gm
same,% T/C,[2]; [21],171%
same,Med. S.T.,[2]; [21],12.0
same,AWG D.5,[2]; [21],-2.4 Gm
same,nausea and vomiting,[3]; cisplatin as a drug,nausea and vomiting which cause extreme discomfort for the patient
same,% T/C,[4]; [18],129%
same,Med. S.T.,[4]; [18],9.0
same,AWG D.5,[4]; [18],-0.7 Gm
same,% T/C,[4]; [19],157%
same,Med. S.T.,[4]; [19],11.0
same,AWG D.5,[4]; [19],-2.1 Gm
same,% T/C,[4]; [20],171%
same,Med. S.T.,[4]; [20],12.0
same,AWG D.5,[4]; [20],-2.8 Gm
same,% T/C,[4]; [21],171%
same,Med. S.T.,[4]; [21],12.0
same,AWG D.5,[4]; [21],-3.3 Gm
Pt-malonato dextran [Pt-malonato dextran of Example 3],Pt release,"[1]; pH 5.50, 1 h",0.6
same,Pt release,"[1]; pH 5.50, 16 h",5.2
same,Pt release,"[1]; pH 5.50, 40 h",6.4
same,Pt release,"[1]; pH 5.50, 64 h",7.6
same,Pt release,"[1]; pH 7.10, 1 h",0.6
same,Pt release,"[1]; pH 7.10, 16 h",4.2
same,Pt release,"[1]; pH 7.10, 40 h",4.9
same,Pt release,"[1]; pH 7.10, 64 h",6.1
same,Pt release,"[1]; pH 8.20, 1 h",0.7
same,Pt release,"[1]; pH 8.20, 16 h",4.2
same,Pt release,"[1]; pH 8.20, 40 h",5.1
same,Pt release,"[1]; pH 8.20, 64 h",6.4
Pt-Malonato Inulin [Example 7],Pt release,"[1]; pH 5.42, 1 h",4.7
same,Pt release,"[1]; pH 5.42, 24 h",18.1
same,Pt release,"[1]; pH 5.42, 48 h",20.5
same,Pt release,"[1]; pH 5.42, 72 h",26.2
same,Pt release,"[1]; pH 5.42, 144 h",27.5
same,Pt release,"[1]; pH 6.76, 1 h",3.1
same,Pt release,"[1]; pH 6.76, 24 h",15.2
same,Pt release,"[1]; pH 6.76, 48 h",18.3
same,Pt release,"[1]; pH 6.76, 72 h",20.0
same,Pt release,"[1]; pH 6.76, 144 h",22.7
same,Pt release,"[1]; pH 7.86, 1 h",4.9
same,Pt release,"[1]; pH 7.86, 24 h",17.8
same,Pt release,"[1]; pH 7.86, 48 h",21.0
same,Pt release,"[1]; pH 7.86, 72 h",21.9
same,Pt release,"[1]; pH 7.86, 144 h",28.8
Pt-Malonato Dextran (Method A) [Example 1],IC50,[5],426 µg/mL
same,IC50,[6],> 500 µg/mL
same,IC50,[7],> 500 µg/mL
same,IC50,[8],408 µg/mL
same,Pt release,"[1]; pH 5.60, 2 h",0.6
same,Pt release,"[1]; pH 5.60, 24 h",4.3
same,Pt release,"[1]; pH 5.60, 48 h",6.8
same,Pt release,"[1]; pH 5.60, 72 h",8.2
same,Pt release,"[1]; pH 6.80, 2 h",0.5
same,Pt release,"[1]; pH 6.80, 24 h",6.6
same,Pt release,"[1]; pH 6.80, 48 h",10.2
same,Pt release,"[1]; pH 6.80, 72 h",13.3
same,Pt release,"[1]; pH 8.30, 2 h",1.3
same,Pt release,"[1]; pH 8.30, 24 h",7.2
same,Pt release,"[1]; pH 8.30, 48 h",10.3
same,Pt release,"[1]; pH 8.30, 72 h",13.8
Pt-Malonato Dextran (Method B) [Example 2],% T/C,[2]; [22],100%
same,Med. S.T.,[2]; [22],7.0
same,% T/C,[2]; [23],100%
same,Med. S.T.,[2]; [23],7.0
same,% T/C,[2]; [24],107%
same,Med. S.T.,[2]; [24],7.5
same,IC50,[5],332 µg/mL
same,IC50,[7],430 µg/mL
same,IC50,[8],> 500 µg/mL
same,% T/C,[4]; [24],107%
same,Med. S.T.,[4]; [24],7.5
same,% T/C,[4]; [25],121%
same,Med. S.T.,[4]; [25],8.5
same,% T/C,[4]; [26],114%
same,Med. S.T.,[4]; [26],8.0
same,% T/C,[4]; [27],143%
same,Med. S.T.,[4]; [27],10.0
N.N.O=C([O-])C1(C(=O)[O-])CCC1.[Pt+2] [carboplatin],nephrotoxicity,"[3]; carboplatin, relative to cisplatin",decreased nephrotoxicity
Pt-Malonato Xylan [Example 9],Pt release,[1]; [9],3.1
same,Pt release,[1]; [10],22.6
same,Pt release,[1]; [11],29.8
same,Pt release,"[1]; pH 5.80, 72 h, 0.1M phosphate buffer",32.8
same,Pt release,"[1]; pH 5.80, 144 h, 0.1M phosphate buffer",41.9
same,Pt release,[1]; [12],2.1
same,Pt release,[1]; [13],17.9
same,Pt release,[1]; [14],23.7
same,Pt release,"[1]; pH 7.00, 72 h, 0.1M phosphate buffer",27.5
same,Pt release,"[1]; pH 7.00, 144 h, 0.1M phosphate buffer",40.9
same,Pt release,[1]; [15],1.7
same,Pt release,[1]; [16],18.9
same,Pt release,[1]; [17],25.4
same,Pt release,"[1]; pH 8.00, 72 h, 0.1M phosphate buffer",28.2
same,Pt release,"[1]; pH 8.00, 144 h, 0.1M phosphate buffer",35.8
